Assays:
[1] = biological target: CRP (wild type) (UniProt P0ACJ8 1-210); test: fluorescence polarization
[2] = biological target: CRPG (UniProt P0ACJ8 1-210, R124N;T128C;S129T); test: fluorescence polarization

B1: 26-mer CRP consensus (dsDNA)
DNA 1: GTAAATGTGATGTACATCACATGGAT
DNA 2: ATCCATGTGATGTACATCACATTTAC
B1: binds [1]; binds [2].
